Measured values: PMC4897640, “Functional diversity of family 3 β-glucosidases from thermophilic cellulolytic fungus Humicola insolens Y1” (Scientific Reports, 2016)
Numbering of substitutions follows the chain as printed. Names may count otherwise.

B1: HiBgl3B (Mycothermus thermophilus; I311F) (protein)
chain: RVVEPRDPVPQGYHAASYYPAPHGGWVSSWREAYEKAYALVSQMTLAEKVNITSGVGIYMGPCVGNTGSVDRLGFPQLCLQDSALGVASADNVTAFPAGITTGATWDKQLMYARGVAIGKEFRGKGANIHLGPSVGPLGRKPLGGRNWEGFGSDPVLQGKAAALHIRGVQEQGIIATIKHLVGNEQEMYRMYHIFQEGYSANIDDRTLHELYLWPFAEAVRAGVGAAMTAYNAVNGSACSQNSYLINGILKDELGFQGLVMSDWLSHISGVGSALAGLDLNMPGDTNFPLFGNSLWQYELTRAVLNGSVPVDRLNDMATRVVATWYKFGQDKNHPRPNFSSNTRSRDGPLYPGALFSPSGQVNWFVNVQEDHYLVARQVAQDAITLLKNNDSLLPLDAGDLTGGKLSVFGTDAQVNPDGPNSCLARACNKGTLGMGWGSGIADYPYMDDPIGAIRKRVPDVKFYNTDSFPWFFGTPENDEVAMVFISSDSGENTLTVEGNHGDRDSAKLRAWHDGDKLVQKVAEKFKNVIVVVHTVGPLDLEPWIELPSVKAVLFAHLPGQEAGESLTNVLFGDVSPSGHLPYSITRKASDLPDSIANLKGFTWGQVQDTYSEGLYIDYRYLQKHSIQPRFAFGHGLSYTNFSFTNATIRAITTPLSVTPPAPPATRPASVVAKYSTDIPPASEAYEPAGFSRIWRYLYPWLSKSDADAAHAIGTSKSKTYPYPPGYSTVQRASFPPAGGGEGGNPALWDVAYEVTVRVTNTGKRPGKASAQLYLQFPEGIEYDTPVLQLRDFEKTKELQPGESQELKLTLTRKDVSVWDVRRQNWVVPTAIDDKKGFTAWVGEASDKLKVACYTGEGRCVEGAKQPV
B2: HiBgl3B (Mycothermus thermophilus; I311F/I81W/T517Y) (protein)
chain: B1 chain with I58W, T494Y
B3: HiBgl3B (Mycothermus thermophilus; T517Y) (protein)
chain: B1 chain with F288I, T494Y
B4: HiBgl3B (Mycothermus thermophilus) (protein)
chain: B1 chain with F288I
B5: HiBgl3B (Mycothermus thermophilus; I81W) (protein)
chain: B1 chain with I58W, F288I
B6: HiBgl3C (Mycothermus thermophilus) (protein)
chain: APNCPVVPRQASGTAAWDTAYASARAAVARLSQQDKINIVTGIGWERGPCVGNTAPVNSIGYPQLCLQDGPLGIRFATGTTAFTPGVQAASTWDVDLIRQRGEYLGAEARAVGVHVLLGPVAGALGKIPHGGRNWEGFGSDPYLAGICMAETIEAIQSQGVQACAKHYIVNEQEWMRETMSSNVDDRTMHEIYLWPFADAAHSNVASFMCSYNKINGTWACESDSVQNKLLKQELGFRGYIMSDWNAQHTTVGSANSGMDMTMPGTDFSGGNVLWGPQLNNAVNSGQVSRARLDDMATRILAAWYLVGQDKGYPQVNLRLNVQGNHKENVRAVARDGIVLLRNEGNILPLGRPSRIAVVGSGAVIGRHAQNGCQDKGCNDGALGMGWGSGSVNYPYFVAPYDAIRERASRDGTQVSLHSSDNTNGVQNVVQGADVAIVFITADSGEGYITVEGHPGDRNHLDPWHNGNQLVQAVAAANKNTIVVVHSTGPIILETILNTPGVRAVVWAGLPSQENGNAIVDILYGSTSPSGKLVYTIAKRPEDYGVSIVRGDDNFREGVFVDYRWFDQNNIEPRFEFGFGLSYTNFSYSGLSITSNARAGPATGPTIPGGPADLWETVATVTAQITNTGGVAGAEVAQLYLTLPPTAPPAGPRQLRGFTKLKLQPGQTGTATFKLRKRDLSYWDVGRQQWVVPSGRFTISVGASSRDIRLTGSIDV
B7: HiBgl3A (Mycothermus thermophilus) (protein)
chain: NRHRQVIGRNHLNHHHRSQRELAYSPPSYPSPWMDPKAAEWQNAYAKAKAFVSKLTLLEKVNLTTGVGWASEQCVGNTGSVPRLGLRGLCLHDSPLGIRGSDYNSAFPSGQTTAATFDRILMYRRGYAMGKEAKGKGINVLLGPVAGPLGRMPAAGRNWEGFSPDPVLTGVGMAETIKGIQDAGVVACAKHLIGNEQEHFRQAGEDYGFNITEALSSNIDDKTMHELYLWPFVDAVRAGVGSVMCAYTQVNNSYSCQNSYLLNYLLKNELGFQGFVMSDWQAQHAGVSAAVAGLDMSMPGDTTFNTGVSFWGANLTLAVLNGTVPRYRIDDMAMRIMAAFFKVHPDIHLDPVNFSFWTRQTYGPLHWRAGDGYQQVNFHVDVREDHHLLIREIAAKGTVLLKNTGGLPLKKPKFIAVIGDDAGPNPNGPNSCDDRGCNNGTLAMGWGSGTANFPYLITPDAALQARALRDGTRYESVLTNYALEKTETLVSQANATAIVFVNANSGEGYTRVDGNMGDRKNLTLWGNGDDLIKNVSSWCSNTIVVIHSTGPVLLTDWYNSPNITAILWAGLPGQESGNSLVDVLYGDVNPAGRTPFTWGATRESYGVDVMYKPNNDDGAPQQDFDEGVFIDYRYFDREDTPVIYEFGHGLSYTTFNYSNLKIEKHNAEPYKPTTGKTTPAPTFGQDDAYGYTGSEKYLFPPSPFRRITDYIYPYLNSTDPHEASLDPHYGQTAEQFLPPGALRADEQPLLRASGQHQPGGNPGLWDVLYTITADITNMGSVTGDEVPQLYVSLGGPQDPKVVLRGFDRLREIGPGETRQFMARLTRRDLSNWDPVLQDWVVGGHKKTVFVGKSSRKLELSAELP
B8: HiBgl3A (Mycothermus thermophilus; Y529T) (protein)
chain: B7 chain with Y509T

How the values were obtained:
[1] = molecular target: HiBgl3A (Mycothermus thermophilus, UniProt A0A191KCR1); experiment: pNPG hydrolysis, Dixon plot; type: biochemical; details: read-out: Ki (mM) / pNPG; substrate pNPG 0.75 and 1 mM, glucose 5-50 mM; product inhibition, mode not stated
[2] = molecular target: T1, HiBgl3B (Mycothermus thermophilus, UniProt A0A191KCR2); experiment: pNPG hydrolysis, Dixon plot; type: biochemical; details: read-out: Ki (mM) / pNPG; substrate pNPG 0.75 and 1 mM, glucose 5-50 mM; product inhibition, mode not stated
T1 construct: GenBank printed as KT203372, same as Hibgl3C, so probably a misprint of KT203371

[3] = molecular target: T2, HiBgl3C (Mycothermus thermophilus, UniProt A0A191KCR0); experiment: pNPG hydrolysis, Dixon plot; type: biochemical; details: read-out: Ki (mM) / pNPG; substrate pNPG 0.75 and 1 mM, glucose 5-50 mM; product inhibition, mode not stated
T2 construct: the same GenBank number is also printed for Hibgl3B
T2 sequence (A0A191KCR0 18-733): B6 chain

[4] = substrate: O=[N+]([O-])c1ccc(O[C@@H]2O[C@H](CO)[C@@H](O)[C@H](O)[C@H]2O)cc1; experiment: purified protein; details: 100 mM Na2HPO4-citric acid
[5] = optimal conditions (pH 6.0, 50 °C), pH 6.0, 50.0 °C
[6] = optimal conditions (pH 5.5, 55 °C in table; 60 °C in text), pH 5.5

T1 sequence (A0A191KCR2 entry or part of it): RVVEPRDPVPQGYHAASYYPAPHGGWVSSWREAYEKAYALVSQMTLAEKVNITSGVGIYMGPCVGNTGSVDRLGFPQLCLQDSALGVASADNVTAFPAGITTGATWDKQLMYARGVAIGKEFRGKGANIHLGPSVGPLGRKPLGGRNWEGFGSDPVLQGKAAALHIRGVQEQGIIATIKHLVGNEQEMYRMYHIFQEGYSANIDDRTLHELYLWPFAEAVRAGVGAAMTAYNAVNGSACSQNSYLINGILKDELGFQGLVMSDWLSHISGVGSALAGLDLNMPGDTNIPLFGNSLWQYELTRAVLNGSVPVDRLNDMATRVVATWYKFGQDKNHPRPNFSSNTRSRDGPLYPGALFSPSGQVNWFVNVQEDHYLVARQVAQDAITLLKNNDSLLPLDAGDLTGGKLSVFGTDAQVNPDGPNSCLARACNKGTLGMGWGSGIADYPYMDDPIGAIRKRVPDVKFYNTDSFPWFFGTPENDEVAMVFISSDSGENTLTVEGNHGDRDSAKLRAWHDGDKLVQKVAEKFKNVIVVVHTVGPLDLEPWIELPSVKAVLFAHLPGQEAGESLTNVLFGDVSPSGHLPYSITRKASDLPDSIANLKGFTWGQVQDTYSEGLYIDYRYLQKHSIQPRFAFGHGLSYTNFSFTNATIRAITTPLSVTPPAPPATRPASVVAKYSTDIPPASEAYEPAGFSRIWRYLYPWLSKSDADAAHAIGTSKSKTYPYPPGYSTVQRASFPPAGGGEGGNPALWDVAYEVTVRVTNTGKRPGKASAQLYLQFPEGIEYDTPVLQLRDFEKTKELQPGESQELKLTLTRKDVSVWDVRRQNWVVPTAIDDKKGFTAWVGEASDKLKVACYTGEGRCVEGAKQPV

Row | Molecule | Km ([4]; optimal conditions) | Vmax ([4]; optimal conditions) | kcat ([4]; optimal conditions) | kcat/Km ([4]; optimal conditions) | further results
1 | OC[C@H]1OC(O)[C@H](O)[C@@H](O)[C@@H]1O (stereo partly drawn) [glucose] |  |  |  |  | Ki [1]: 25 mM; Ki [2]: 55.2 mM; Ki [3]: 37.1 mM
2 | B1 | 2420 µM | 6.07 µmol/min/mg | 9.61 s⁻¹ | 3980 M⁻¹ s⁻¹ | 
3 | B2 | 2480 µM | 2.68 µmol/min/mg | 4.24 s⁻¹ | 1710 M⁻¹ s⁻¹ | 
4 | B3 | 2370 µM | 9.51 µmol/min/mg | 15.1 s⁻¹ | 6360 M⁻¹ s⁻¹ | 
5 | B4 |  |  |  |  | Km [4, 5]: 1510 µM; Vmax [4, 5]: 25.5 µmol/min/mg; kcat [4, 5]: 40.4 s⁻¹; kcat/Km [4, 5]: 26800 M⁻¹ s⁻¹
6 | B5 | 1990 µM | 2.03 µmol/min/mg | 3.21 s⁻¹ | 1610 M⁻¹ s⁻¹ | 
7 | B6 |  |  |  |  | Km [4, 6]: 200 µM; kcat/Km [4, 6]: 1.56e+06 M⁻¹ s⁻¹
8 | B7 |  |  |  |  | Km ([4]; pH 5.5, 60 °C, pH 5.5, 60.0 °C): 900 µM; Vmax ([4]; pH 5.5, 60 °C, pH 5.5, 60.0 °C): 46.2 µmol/min/mg; kcat ([4]; pH 5.5, 60 °C, pH 5.5, 60.0 °C): 73.1 s⁻¹; kcat/Km ([4]; pH 5.5, 60 °C, pH 5.5, 60.0 °C): 81600 M⁻¹ s⁻¹
9 | B8 | 2450 µM | 43 µmol/min/mg | 68.2 s⁻¹ | 27800 M⁻¹ s⁻¹ | 
